{"source": "patent EP4745153A1", "about": "“GLP-1, GIP AND GCG RECEPTOR […] USE THEREOF” (Jiangsu Hengrui Pharmaceuticals Co., Ltd., priority 2023, dated 2025)", "binders": {"B1": {"name": "Compound No. 0132 (peptide)", "peptide": "H[Aib]HGTFTSDYS[αMeK]ILEK([AEEA-AEEA-γGlu-C20 diacid])KAA[Iva]EFVEWLIEGGPSSGAPPPS-NH2", "modifications": "N-terminus assumed", "SMILES": "CC[C@H](C)[C@H](NC(=O)[C@H](CC(C)C)NC(=O)[C@H](Cc1c[nH]c2ccccc12)NC(=O)[C@H](CCC(=O)O)NC(=O)[C@@H](NC(=O)[C@H](Cc1ccccc1)NC(=O)[C@H](CCC(=O)O)NC(=O)[C@](C)(CC)NC(=O)[C@H](C)NC(=O)[C@H](C)NC(=O)[C@H](CCCCN)NC(=O)[C@H](CCCCNC(=O)COCCOCCNC(=O)COCCOCCNC(=O)CC[C@H](NC(=O)CCCCCCCCCCCCCCCCCCC(=O)O)C(=O)O)NC(=O)[C@H](CCC(=O)O)NC(=O)[C@H](CC(C)C)NC(=O)[C@@H](NC(=O)[C@](C)(CCCCN)NC(=O)[C@H](CO)NC(=O)[C@H](Cc1ccc(O)cc1)NC(=O)[C@H](CC(=O)O)NC(=O)[C@H](CO)NC(=O)[C@@H](NC(=O)[C@H](Cc1ccccc1)NC(=O)[C@@H](NC(=O)CNC(=O)[C@H](Cc1c[nH]cn1)NC(=O)C(C)(C)NC(=O)[C@@H](N)Cc1c[nH]cn1)[C@@H](C)O)[C@@H](C)O)[C@@H](C)CC)C(C)C)C(=O)N[C@@H](CCC(=O)O)C(=O)NCC(=O)NCC(=O)N1CCC[C@H]1C(=O)N[C@@H](CO)C(=O)N[C@@H](CO)C(=O)NCC(=O)N[C@@H](C)C(=O)N1CCC[C@H]1C(=O)N1CCC[C@H]1C(=O)N1CCC[C@H]1C(=O)N[C@@H](CO)C(N)=O"}, "B2": {"name": "Compound No. 0131 (peptide)", "peptide": "H[Aib]HGTFTSDYS[αMeK]LLEK([AEEA-AEEA-γGlu-C20 diacid])KAA[Iva]EFVEWLIEGGPSSGAPPPS-NH2", "modifications": "N-terminus assumed", "SMILES": "CC[C@H](C)[C@H](NC(=O)[C@H](CC(C)C)NC(=O)[C@H](Cc1c[nH]c2ccccc12)NC(=O)[C@H](CCC(=O)O)NC(=O)[C@@H](NC(=O)[C@H](Cc1ccccc1)NC(=O)[C@H](CCC(=O)O)NC(=O)[C@](C)(CC)NC(=O)[C@H](C)NC(=O)[C@H](C)NC(=O)[C@H](CCCCN)NC(=O)[C@H](CCCCNC(=O)COCCOCCNC(=O)COCCOCCNC(=O)CC[C@H](NC(=O)CCCCCCCCCCCCCCCCCCC(=O)O)C(=O)O)NC(=O)[C@H](CCC(=O)O)NC(=O)[C@H](CC(C)C)NC(=O)[C@H](CC(C)C)NC(=O)[C@](C)(CCCCN)NC(=O)[C@H](CO)NC(=O)[C@H](Cc1ccc(O)cc1)NC(=O)[C@H](CC(=O)O)NC(=O)[C@H](CO)NC(=O)[C@@H](NC(=O)[C@H](Cc1ccccc1)NC(=O)[C@@H](NC(=O)CNC(=O)[C@H](Cc1c[nH]cn1)NC(=O)C(C)(C)NC(=O)[C@@H](N)Cc1c[nH]cn1)[C@@H](C)O)[C@@H](C)O)C(C)C)C(=O)N[C@@H](CCC(=O)O)C(=O)NCC(=O)NCC(=O)N1CCC[C@H]1C(=O)N[C@@H](CO)C(=O)N[C@@H](CO)C(=O)NCC(=O)N[C@@H](C)C(=O)N1CCC[C@H]1C(=O)N1CCC[C@H]1C(=O)N1CCC[C@H]1C(=O)N[C@@H](CO)C(N)=O"}, "B3": {"name": "Compound No. 0106 (peptide)", "peptide": "H[Aib]HGTFTSDYSK[αMeY]LEK([AEEA-AEEA-γGlu-C17 diacid])KAAQEFVEWLLAGGPSSGAPPPS-NH2", "modifications": "N-terminus assumed", "SMILES": "CC(C)C[C@H](NC(=O)[C@H](CC(C)C)NC(=O)[C@H](Cc1c[nH]c2ccccc12)NC(=O)[C@H](CCC(=O)O)NC(=O)[C@@H](NC(=O)[C@H](Cc1ccccc1)NC(=O)[C@H](CCC(=O)O)NC(=O)[C@H](CCC(N)=O)NC(=O)[C@H](C)NC(=O)[C@H](C)NC(=O)[C@H](CCCCN)NC(=O)[C@H](CCCCNC(=O)COCCOCCNC(=O)COCCOCCNC(=O)CC[C@H](NC(=O)CCCCCCCCCCCCCCCC(=O)O)C(=O)O)NC(=O)[C@H](CCC(=O)O)NC(=O)[C@H](CC(C)C)NC(=O)[C@](C)(Cc1ccc(O)cc1)NC(=O)[C@H](CCCCN)NC(=O)[C@H](CO)NC(=O)[C@H](Cc1ccc(O)cc1)NC(=O)[C@H](CC(=O)O)NC(=O)[C@H](CO)NC(=O)[C@@H](NC(=O)[C@H](Cc1ccccc1)NC(=O)[C@@H](NC(=O)CNC(=O)[C@H](Cc1c[nH]cn1)NC(=O)C(C)(C)NC(=O)[C@@H](N)Cc1c[nH]cn1)[C@@H](C)O)[C@@H](C)O)C(C)C)C(=O)N[C@@H](C)C(=O)NCC(=O)NCC(=O)N1CCC[C@H]1C(=O)N[C@@H](CO)C(=O)N[C@@H](CO)C(=O)NCC(=O)N[C@@H](C)C(=O)N1CCC[C@H]1C(=O)N1CCC[C@H]1C(=O)N1CCC[C@H]1C(=O)N[C@@H](CO)C(N)=O"}}, "note": "Starred links: 1 amine or outer side, 2 acyl side, 3 side chain; linkers in the order of their positions; H or OH if unused. Non-standard residues stand in square brackets, D forms with d. Groups on a side chain read outwards from the residue. No end group written: not given here. *: point of attachment. C20 diacid = O=C(O)CCCCCCCCCCCCCCCCCCC(=O)*; C17 diacid = O=C(O)CCCCCCCCCCCCCCCC(=O)*; γGlu = O=C(O)[C@H](CCC(=O)[*:2])N[*:1]; αMeY = C[C@](N)(Cc1ccc(O)cc1)C(=O)O; αMeK = C[C@](N)(CCCCN)C(=O)O; Iva = CC[C@](C)(N)C(=O)O; AEEA = NCCOCCOCC(=O)O; Aib = CC(C)(N)C(=O)O", "data": [{"target": "T1, human glucagon-like peptide-1 receptor (human, UniProt P43220 24-463)", "test": "cell-based or functional assay", "units": {"Activity against human GLP-1R (EC50 nM)": "nM"}, "values": [{"binder": "Y[Aib]QGTFTSDYS[αMeK]ILEK([AEEA-AEEA-γGlu-C20 diacid])KAA[Iva]EFVEWLLAGGPSSGAPPPS-NH2", "note": "[Compound No. 0129]", "Activity against human GLP-1R (EC50 nM)": 0.159}, {"binder": "Y[Aib]QGTFTSDYS[αMeK]LLEK([AEEA-AEEA-γGlu-C20 diacid])KAA[Iva]EFVEWLLAGGPSSGAPPPS-NH2", "note": "[Compound No. 0127]", "Activity against human GLP-1R (EC50 nM)": 0.132}, {"binder": "B1", "Activity against human GLP-1R (EC50 nM)": 0.024}, {"binder": "H[Aib]HGTFTSDYS[αMeK]ILEK([AEEA-AEEA-γGlu-C20 diacid])QAA[Iva]EFVEWLLAGGPSSGAPPPS-NH2", "note": "[Compound No. 0130]", "Activity against human GLP-1R (EC50 nM)": 0.048}, {"binder": "B2", "Activity against human GLP-1R (EC50 nM)": 0.02}]}, {"target": "T2, human glucagon receptor (human, UniProt P47871 26-477)", "T2 sequence (P47871 26-477)": "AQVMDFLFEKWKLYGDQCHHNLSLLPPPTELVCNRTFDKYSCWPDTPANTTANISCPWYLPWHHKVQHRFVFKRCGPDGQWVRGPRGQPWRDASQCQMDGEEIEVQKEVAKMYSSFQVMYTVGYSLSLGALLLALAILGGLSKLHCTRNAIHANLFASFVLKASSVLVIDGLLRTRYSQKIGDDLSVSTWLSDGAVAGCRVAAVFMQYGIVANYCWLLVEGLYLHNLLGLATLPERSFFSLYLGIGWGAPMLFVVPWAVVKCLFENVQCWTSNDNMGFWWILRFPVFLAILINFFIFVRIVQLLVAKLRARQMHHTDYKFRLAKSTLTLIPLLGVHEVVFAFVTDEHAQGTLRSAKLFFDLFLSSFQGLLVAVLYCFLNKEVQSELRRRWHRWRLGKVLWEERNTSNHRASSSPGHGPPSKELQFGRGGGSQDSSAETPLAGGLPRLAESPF", "test": "cell-based or functional assay", "units": {"Activity against human GCGR (EC50 nM)": "nM"}, "values": [{"binder": "Y[Aib]QGTFTSDYS[αMeK]ILEK([AEEA-AEEA-γGlu-C20 diacid])KAA[Iva]EFVEWLLAGGPSSGAPPPS-NH2", "note": "[Compound No. 0129]", "Activity against human GCGR (EC50 nM)": 0.067}, {"binder": "Y[Aib]QGTFTSDYS[αMeK]LLEK([AEEA-AEEA-γGlu-C20 diacid])KAA[Iva]EFVEWLLAGGPSSGAPPPS-NH2", "note": "[Compound No. 0127]", "Activity against human GCGR (EC50 nM)": 0.037}, {"binder": "B1", "Activity against human GCGR (EC50 nM)": 0.03}, {"binder": "H[Aib]HGTFTSDYS[αMeK]ILEK([AEEA-AEEA-γGlu-C20 diacid])QAA[Iva]EFVEWLLAGGPSSGAPPPS-NH2", "note": "[Compound No. 0130]", "Activity against human GCGR (EC50 nM)": 0.03}, {"binder": "B2", "Activity against human GCGR (EC50 nM)": 0.026}]}, {"target": "T3, human glucose-dependent insulinotropic polypeptide receptor (human, UniProt P48546 22-466)", "T3 sequence (looked up)": "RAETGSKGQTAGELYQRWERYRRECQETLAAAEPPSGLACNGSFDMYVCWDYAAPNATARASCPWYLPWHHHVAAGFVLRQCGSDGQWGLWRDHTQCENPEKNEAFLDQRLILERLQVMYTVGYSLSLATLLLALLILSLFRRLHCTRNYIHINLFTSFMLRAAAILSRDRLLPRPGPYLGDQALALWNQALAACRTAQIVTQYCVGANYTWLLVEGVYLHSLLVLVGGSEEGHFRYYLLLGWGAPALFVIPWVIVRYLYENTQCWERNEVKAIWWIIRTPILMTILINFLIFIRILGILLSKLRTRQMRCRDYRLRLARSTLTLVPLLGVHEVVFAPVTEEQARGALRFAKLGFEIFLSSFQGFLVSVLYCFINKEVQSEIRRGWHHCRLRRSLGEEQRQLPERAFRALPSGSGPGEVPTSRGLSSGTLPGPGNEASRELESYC", "test": "cell-based or functional assay", "units": {"Activity against human GIPR (EC50 nM)": "nM"}, "values": [{"binder": "Y[Aib]QGTFTSDYS[αMeK]ILEK([AEEA-AEEA-γGlu-C20 diacid])KAA[Iva]EFVEWLLAGGPSSGAPPPS-NH2", "note": "[Compound No. 0129]", "Activity against human GIPR (EC50 nM)": 0.002}, {"binder": "Y[Aib]QGTFTSDYS[αMeK]LLEK([AEEA-AEEA-γGlu-C20 diacid])KAA[Iva]EFVEWLLAGGPSSGAPPPS-NH2", "note": "[Compound No. 0127]", "Activity against human GIPR (EC50 nM)": 0.0007}, {"binder": "B1", "Activity against human GIPR (EC50 nM)": 0.001}, {"binder": "H[Aib]HGTFTSDYS[αMeK]ILEK([AEEA-AEEA-γGlu-C20 diacid])QAA[Iva]EFVEWLLAGGPSSGAPPPS-NH2", "note": "[Compound No. 0130]", "Activity against human GIPR (EC50 nM)": 0.0005}, {"binder": "B2", "Activity against human GIPR (EC50 nM)": 0.0007}]}, {"target": "T1, human glucagon-like peptide-1 receptor", "test": "cell-based or functional assay", "remark": "another data set of the same source", "units": {"Activity against human GLP-1R (EC50 nM)": "nM"}, "values": [{"binder": "B3", "Activity against human GLP-1R (EC50 nM)": 0.03}]}, {"target": "T2, human glucagon receptor", "test": "cell-based or functional assay", "remark": "another data set of the same source", "units": {"Activity against human GCGR (EC50 nM)": "nM"}, "values": [{"binder": "B3", "Activity against human GCGR (EC50 nM)": 0.095}]}, {"target": "T3, human glucose-dependent insulinotropic …", "test": "cell-based or functional assay", "remark": "another data set of the same source", "units": {"Activity against human GIPR (EC50 nM)": "nM"}, "values": [{"binder": "B3", "Activity against human GIPR (EC50 nM)": 0.027}]}]}
